The record followed here is patent publication US20150132313A1.

For one experiment, the target named is IFNα2a (human) (UniProt P01563). Description: cell-based or functional assay.
The next experiment deals with human leukocyte IFN. Description: cell-based or functional assay.

Sequence of MEDI-545 (VH): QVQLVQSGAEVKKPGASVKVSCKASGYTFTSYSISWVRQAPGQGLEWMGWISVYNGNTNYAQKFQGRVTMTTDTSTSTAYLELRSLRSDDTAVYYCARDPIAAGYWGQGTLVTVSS
Sequence of MEDI-545 (VL): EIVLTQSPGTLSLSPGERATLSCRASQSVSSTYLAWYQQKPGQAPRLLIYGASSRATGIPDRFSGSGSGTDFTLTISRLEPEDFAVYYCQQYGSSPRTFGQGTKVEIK

As to MEDI-545 (antibody), in the experiment with IFNα2a (human), the HERC5 gene expression (Average), 107 IFN + 545 (107 IFN alone 41.12; 107 VEH 1.00) was 6.29; the HERC5 gene expression (Average), 163 IFN + 545 (163 IFN alone 75.81; 163 VEH 1.05) is 7.83; the HERC5 gene expression (Average), 175 IFN + 545 (175 IFN alone 74.58; 175 VEH 1.19) amounted to 6.89; the IFIT1 gene expression, Average (TAQMAN, whole blood + 100 IU IFNα2a + MEDI-545; donor 107; IFN alone 80.21) (relative expression) is 13.1. In the experiment with IFNα2a (human), the IFIT1 gene expression, Average (TAQMAN, whole blood + 100 IU IFNα2a + MEDI-545; donor 163; IFN alone 51.65) (relative expression) was 7.6; the IFIT1 gene expression, Average (TAQMAN, whole blood + 100 IU IFNα2a + MEDI-545; donor 175; IFN alone 82.98) (relative expression) was 8.4; the IFIT3 gene expression, Average (TAQMAN, whole blood + 100 IU IFNα2a + MEDI-545; donor 107; IFN alone 38.43) (relative expression) was found to be 6.78; the IFIT3 gene expression, Average (TAQMAN, whole blood + 100 IU IFNα2a + MEDI-545; donor 163; IFN alone 25.94) (relative expression) came to 4.58. Also, in the experiment with IFNα2a (human), the IFIT3 gene expression, Average (TAQMAN, whole blood + 100 IU IFNα2a + MEDI-545; donor 175; IFN alone 35.02) (relative expression) amounted to 5.28; the IL6ST gene expression, Average (TAQMAN, whole blood + 100 IU IFNα2a + MEDI-545; donor 107; IFN alone 3.54) (relative expression) is 2.62; the IL6ST gene expression, Average (TAQMAN, whole blood + 100 IU IFNα2a + MEDI-545; donor 163; IFN alone 7.69) (relative expression) turned out to be 4.18; the IL6ST gene expression, Average (TAQMAN, whole blood + 100 IU IFNα2a + MEDI-545; donor 175; IFN alone 7.62) (relative expression) turned out to be 2.95. In the experiment with IFNα2a (human), the IRF7 gene expression, Average (TAQMAN, whole blood + 100 IU IFNα2a + MEDI-545; donor 107; IFN alone 18.53) (relative expression) came out at 3.42; the IRF7 gene expression, Average (TAQMAN, whole blood + 100 IU IFNα2a + MEDI-545; donor 163; IFN alone 17.16) (relative expression) was determined as 2.92; the IRF7 gene expression, Average (TAQMAN, whole blood + 100 IU IFNα2a + MEDI-545; donor 175; IFN alone 24.65) (relative expression) worked out at 2.43; the LY6E gene expression, Average (TAQMAN, whole blood + 100 IU IFNα2a + MEDI-545; donor 107; IFN alone 19.09) (relative expression) was 3.5. In the experiment with IFNα2a (human), the LY6E gene expression, Average (TAQMAN, whole blood + 100 IU IFNα2a + MEDI-545; donor 163; IFN alone 13.52) (relative expression) is 4.8; the LY6E gene expression, Average (TAQMAN, whole blood + 100 IU IFNα2a + MEDI-545; donor 175; IFN alone 19.32) (relative expression) is 3.74; the MARCKS gene expression, Average (TAQMAN, whole blood + 100 IU IFNα2a + MEDI-545; donor 163; IFN alone 2.59) (relative expression) was 1.55; the MARCKS gene expression, Average (TAQMAN, whole blood + 100 IU IFNα2a + MEDI-545; donor 175; IFN alone 2.59) (relative expression) came to 0.55. Also, in the experiment with IFNα2a (human), the OAS1 gene expression (Average), 107 IFN + 545 (107 IFN alone 15.11; 107 VEH 1.00) is 3.45; the OAS1 gene expression (Average), 163 IFN + 545 (163 IFN alone 14.19; 163 VEH 0.77) is 3.05; the OAS1 gene expression (Average), 175 IFN + 545 (175 IFN alone 22.09; 175 VEH 1.62) was 4.04; the OAS3 gene expression (Average), 107 IFN + 545 (107 IFN alone 49.04; 107 VEH 1.00) was 7.03. In the experiment with IFNα2a (human), the OAS3 gene expression (Average), 163 IFN + 545 (163 IFN alone 42.01; 163 VEH 0.49) turned out to be 14.6; the OAS3 gene expression (Average), 175 IFN + 545 (175 IFN alone 37.87; 175 VEH 1.27) was 3.92; the RAB8B gene expression, Average (TAQMAN, whole blood + 100 IU IFNα2a + MEDI-545; donor 163; IFN alone 2.20) (relative expression) turned out to be 1.18; the RAB8B gene expression, Average (TAQMAN, whole blood + 100 IU IFNα2a + MEDI-545; donor 175; IFN alone 2.63) (relative expression) stood at 1.15. In the experiment with IFNα2a (human), the RSAD2 gene expression (Average), 107 IFN + 545 (107 IFN alone 109.64; 107 VEH 1.00) came out at 9.88; the RSAD2 gene expression (Average), 163 IFN + 545 (163 IFN alone 71.47; 163 VEH 0.56) was determined as 4.39; the RSAD2 gene expression (Average), 175 IFN + 545 (175 IFN alone 126.27; 175 VEH 1.88) stood at 8.43. Besides, the neutralization of ISG15, USP18 and IFIT2 overexpression in keratinocytes stimulated with 150 I.U./mL leukocyte IFN with human leukocyte IFN was 70 to 100%.
Regarding R347 (antibody), in the experiment with IFNα2a (human), the HERC5 gene expression (Average), 107 IFN + R347 (107 IFN alone 41.12; 107 VEH 1.00) was 55; the HERC5 gene expression (Average), 163 IFN + R3437 (163 IFN alone 75.81; 163 VEH 1.05) came to 95.4; the HERC5 gene expression (Average), 175 IFN + R347 (175 IFN alone 74.58; 175 VEH 1.19) stood at 98.2; the OAS1 gene expression (Average), 107 IFN + R347 (107 IFN alone 15.11; 107 VEH 1.00) came to 17.8. Besides, in the experiment with IFNα2a (human), the OAS1 gene expression (Average), 163 IFN + R3437 (163 IFN alone 14.19; 163 VEH 0.77) is 22.4; the OAS1 gene expression (Average), 175 IFN + R347 (175 IFN alone 22.09; 175 VEH 1.62) stood at 15.2; the OAS3 gene expression (Average), 107 IFN + R347 (107 IFN alone 49.04; 107 VEH 1.00) was 76.9; the OAS3 gene expression (Average), 163 IFN + R3437 (163 IFN alone 42.01; 163 VEH 0.49) came out at 52.6. For the same substance, in the experiment with IFNα2a (human), the OAS3 gene expression (Average), 175 IFN + R347 (175 IFN alone 37.87; 175 VEH 1.27) came out at 34.9; the RSAD2 gene expression (Average), 107 IFN + R347 (107 IFN alone 109.64; 107 VEH 1.00) amounted to 107; the RSAD2 gene expression (Average), 163 IFN + R3437 (163 IFN alone 71.47; 163 VEH 0.56) was 115; the RSAD2 gene expression (Average), 175 IFN + R347 (175 IFN alone 126.27; 175 VEH 1.88) stood at 91.
